The values below come from patent publication US20250043302A1, “MUTATED HYDROXYPHENYLPYRUVATE DIOXYGENASE POLYPEPTIDE, AND CODING GENE AND USE THEREOF” (BEIJING DABEINONG BIOTECHNOLOGY CO., LTD., priority 2021, published 2025).

For data set [1], the system named is Arabidopsis thaliana T1 plants. In words: Isoxaflutole tolerance of transgenic Arabidopsis thaliana T1 plants (spray, bleached leaf area grade, damage score).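 On Scores: Weighted damage index from 0 to 100 where higher means more damage.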 Type of data set: in vivo. Conditions: Table 11; for Classification and statistics of the grade of pesticide damage Grade 0: number of plants at grade 0; for Classification and statistics of the grade of pesticide damage Grade 1: number of plants at grade 1; for Classification and statistics of the grade of pesticide damage Grade 2: number of plants at grade 2; for Classification and statistics of the grade of pesticide damage Grade 3: number of plants at grade 3; for Scores: pesticide damage score. From the text: T1 transformants were initially selected from the untransformed seeds using a glufosinate selection scheme. The Arabidopsis thaliana T1 plants (AsHPPD-02) into which the AsHPPD-02 nucleotide sequence was introduced, the Arabidopsis thaliana T1 plants (AsHPPDm-F372A-02) into which the AsHPPDm-F372A-02 nucleotide sequence was introduced, the Arabidopsis thaliana T1 plants (AsHPPDm-F383W-02) into which the AsHPPDm-F383W-02 nucleotide sequence was introduced, the Arabidopsis thaliana T1 plants (AsHPPDm-F372A-F383W-02) into which the AsHPPDm-F372A-F383W-02 nucleotide sequence was introduced, the Arabidopsis thaliana T1 plants (DBN11726N) into which the control recombinant expression vector DBN11726N was introduced, and the wild-type Arabidopsis thaliana plants (CK) (18 days after sowing) were sprayed respectively with topramezone at three concentrations (100 g ai/ha (four-fold field concentration, 4×), 200 g ai/ha (eight-fold field concentration, 8×), and 0 g ai/ha (water, 0×)), isoxaflutole at three concentrations (140 g ai/ha (two-fold field concentration, 2×), 280 g ai/ha (four-fold field concentration, 4×), and 0 g ai/ha (water, 0×)), and mesotrione at three concentrations (210 g ai/ha (two-fold field concentration, […]), 420 g ai/ha (four-fold field concentration, 4×), and 0 g ai/ha (water, 0×)), to determine the tolerance of Arabidopsis thaliana to the herbicides. The degree of damage caused by the herbicide was measured for each plant according to the proportion of bleached leaf area (the proportion of bleached leaf area=bleached leaf area/total leaf area×100%) 7 days after spraying (7 DAT): the case where there is basically no bleached phenotype is defined as grade 0, the case where the proportion of bleached leaf area is less than 50% is defined as grade 1, the case where the proportion of bleached leaf area is more than 50% is defined as grade 2, and the case where the proportion of bleached leaf area is 100% grade is defined as grade 3.
According to the method as described above in point 6 of Example 1, the aforementioned Arabidopsis thaliana T1 plants and wild-type Arabidopsis thaliana plants (CK) (18 days after sowing) were sprayed respectively with topramezone at three concentrations (25 g ai/ha (one-fold field concentration, 1×). 100 g ai/ha (four-fold field concentration, 4×), and 0 g ai/ha (water, 0×)), isoxaflutole at three concentrations (35 g ai/ha (half-fold field concentration, 0.5×). 70 g ai/ha (one-fold field concentration, 1×), and 0 g ai/ha (water, 0×)), and mesotrione at three concentrations (52.5 g ai/ha (half-fold field concentration, 0.5×), 105 g ai/ha (one-fold field concentration, 1×), and 0 g ai/ha (water, 0×)) to detect the tolerance of Arabidopsis thaliana to the herbicides.
According to the method as described above in point 6 of Example 1, the aforementioned Arabidopsis thaliana T1 plants and wild-type Arabidopsis thaliana plants (CK) (18 days after sowing) were sprayed with topramezone at three different concentrations (i.e., 100 g ai/ha (four-fold field concentration, 4×), 200 g ai/ha (eight-fold field concentration, 8×) and 0 g ai/ha (water, 0×)), isoxaflutole at three different concentrations (i.e., 140 g ai/ha (two-fold field concentration, 2×), 280 g ai/ha (four-fold field concentration, 4×) and 0 g ai/ha (water, 0×)), and mesotrione at three different concentrations (i.e., 210 g ai/ha (two-fold field concentration, 2×), 420 g ai/ha (four-fold field concentration, 4×) and 0 g ai/ha (water, 0×)) respectively to detect the herbicide tolerance of Arabidopsis thaliana. […]

Data set [2] has as its system Arabidopsis thaliana T1 plants. Kind of data set: Mesotrione tolerance of transgenic Arabidopsis thaliana T1 plants (spray, bleached leaf area grade, damage score). Type of data set: in vivo. Also noted: Scores: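 damage score 0-100 computed as Σ(N×S)/(T×M)×100 over grades 0-3 with higher meaning more damage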. Conditions: Table 12; for Classification and statistics of the grade of pesticide damage Grade 0: number of plants at grade 0; for Classification and statistics of the grade of pesticide damage Grade 1: number of plants at grade 1; for Classification and statistics of the grade of pesticide damage Grade 2: number of plants at grade 2; for Classification and statistics of the grade of pesticide damage Grade 3: number of plants at grade 3; for Scores: pesticide damage score. The gist of the method: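 T1 transformants selected by glufosinate; 18-day-old plants, with empty-vector and wild-type controls, sprayed with topramezone (25–200 g ai/ha), isoxaflutole (35–280 g ai/ha) or mesotrione (52.5–420 g ai/ha), water as 0×. Bleached leaf area fraction scored at 7 DAT as grades 0–3.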

B1: AsHPPDm-A107-F383W-02: nucleotide sequence encoding Avena sativa HPPD with A107 deletion+F383W; vector DBN11779 (nucleic acid)
DNA: ATGCCACCTACTCCAGCTACAGCTACTGGTGCTGCTGCTGCTGCCGTTACTCCTGAGCACGCTGCCAGGTCATTCCCCAGGGTGGTTCGCGTGAACCCCAGATCTGATAGGTTCCCAGTTCTGAGCTTCCACCATGTTGAGCTGTGGTGCGCTGATGCTGCTTCTGCTGCTGGCAGGTTCTCTTTCGCTCTTGGTGCTCCACTCGCTGCTAGATCTGATCTGTCTACAGGAAATAGCGCTCATGCCTCACTCCTGCTTCGCTCAGGTGCTTTGGCCTTCCTCTTCACCGCTCCATATGCTCCCCCACCTCAGGAGGCTACTGCTGCTGCTACAGCCTCCATTCCAAGCTTCTCAGCTGATGCCGCTAGAACCTTCGCTGCTGCTCATGGACTTGCCGTGAGGTCTGTTGGTGTTCGCGTGGCTGATGCTGCTGAGGCTTTCAGAGTTTCCGTTGCCGGCGGAGCTAGGCCAGCTTTCGCTCCTGCTGATTTGGGACATGGTTTCGGCCTGGCTGAGGTTGAGCTTTACGGTGACGTGGTTCTCCGCTTCGTGTCTTACCCAGATGAGACTGACCTGCCTTTCCTTCCCGGCTTCGAGAGAGTTTCCTCTCCTGGTGCCGTGGATTACGGCCTGACAAGGTTCGACCACGTGGTTGGAAACGTTCCCGAGATGGCTCCAGTGATCGATTACATGAAGGGCTTCCTTGGATTCCATGAGTTCGCCGAGTTCACTGCTGAGGACGTGGGAACCACTGAGTCCGGTTTGAACTCTGTGGTTCTCGCCAACAATTCTGAGGCTGTTTTGCTCCCTCTGAATGAGCCTGTGCATGGAACCAAGAGGAGAAGCCAGATTCAAACTTACCTGGAGTACCACGGTGGCCCTGGAGTTCAGCATATCGCCCTTGCTTCTAATGATGTGTTGCGCACACTCAGAGAGATGCGCGCCAGAACCCCCATGGGAGGTTTCGAGTTCATGGCCCCACCACAGGCTAAGTACTACGAGGGCGTTAGAAGGATTGCTGGAGACGTGTTGAGCGAGGAGCAGATCAAGGAGTGCCAAGAGCTGGGTGTTCTTGTGGATAGGGATGACCAGGGCGTTCTGCTTCAAATTTTCACTAAGCCAGTGGGCGACCGCCCTACATTCTGGCTTGAGATGATTCAAAGAATCGGCTGCATGGAGAAGGATGAGGTTGGACAGGAGTACCAAAAGGGCGGATGCGGTGGCTTCGGAAAGGGTAACTTCAGCGAGTTGTTCAAGTCAATCGAGGACTACGAGAAGAGCCTCGAGGTGAAGCAGTCAGTGGTTGCCCAAAAGTCCTGA
modifications: AsHPPDm-A107-F383W-02 Nucleotide Sequence
notes: vector DBN11779
Consider B1, for which, in data set [1] (isoxaflutole 140 g ai/ha (2×)), the Resistance evaluation result is on record as “Moderately”; the “Classification and statistics of the grade of pesticide damage Grade 0” value turned out to be 7; the “Classification and statistics of the grade of pesticide damage Grade 1” value is listed as 7; the “Classification and statistics of the grade of pesticide damage Grade 2” value amounted to 1. In data set [1] (isoxaflutole 140 g ai/ha (2×)), the “Classification and statistics of the grade of pesticide damage Grade 3” value is 1; the Scores was 25. In data set [1] (isoxaflutole 280 g ai/ha (4×)), the Resistance evaluation result was “Poorly resistant”; the “Classification and statistics of the grade of pesticide damage Grade 0” value is 4; the “Classification and statistics of the grade of pesticide damage Grade 1” value is 4; the “Classification and statistics of the grade of pesticide damage Grade 2” value was 7. In addition, in data set [1] (isoxaflutole 280 g ai/ha (4×)), the “Classification and statistics of the grade of pesticide damage Grade 3” value worked out at 1; the Scores is 44. Moreover, in data set [2] (mesotrione 210 g ai/ha (2×)), the Resistance evaluation result is “Moderately”; the “Classification and statistics of the grade of pesticide damage Grade 0” value was 4; the “Classification and statistics of the grade of pesticide damage Grade 1” value is given as 9; the “Classification and statistics of the grade of pesticide damage Grade 2” value was found to be 3. Also, in data set [2] (mesotrione 210 g ai/ha (2×)), the “Classification and statistics of the grade of pesticide damage Grade 3” value turned out to be 0; the Scores was found to be 31. In data set [2] (mesotrione 420 g ai/ha (4×)), the Resistance evaluation entry is “Poorly resistant”; the “Classification and statistics of the grade of pesticide damage Grade 0” value was found to be 0; the “Classification and statistics of the grade of pesticide damage Grade 1” value turned out to be 2; the “Classification and statistics of the grade of pesticide damage Grade 2” value is recorded as 14. In data set [2] (mesotrione 420 g ai/ha (4×)), the “Classification and statistics of the grade of pesticide damage Grade 3” value was 0; the Scores was 63.
